Results as given in patent publication US20230110249A1 (University of California, published 2023).

B1: anti-human ROR1 antibody 99961 (antibody, V domains shown)
VH: EIQLQQSGPVLVKPGASVKVSCKASGYAFTAYNIHWVRQSHGKRLEWIGSFDPYDGGSSYNQKFKDKATLTVDKSSTTAYMHLNSLTSEDSAVYYCARGWYYFDYWGHGTTLTVSS
VL: DVQITQSPSYLAASPGETITINCRASKSISKYLAWYQEKPGKTNKLLIYSGSTLQSGIPSRFRGSGSGTDFTLTISSLEPEDFAMYYCQQHDESPYTFGEGTKLEIK
notes: also called Ab9991
B2: anti-ROR1 monoclonal antibody D10 (antibody, V domains shown)
VH: QVQLKESGPGLVAPSQTLSITCTVSGFSLTSYGVHWVRQPPGKGLEWLGVIWAGGFTNYNSALKSRLSISKDNSKSQVLLKMTSLQTDDTAMYYCARRGSSYSMDYWGQGTSVIVSS
VL: EIVLSQSPAITAASLGQKVTITCSASSNVSYIHWYQQRSGTSPRPWIYEISKLASGVPVRFSGSGSGTSYSLTISSMEAEDAAIYYCQQWNYPLITFGSGTKLEIQ

Assays:
[1] = target: T1, human ROR1 protein (construct not stated) (human, UniProt Q01973 30-406, limits assumed); assay: method not stated (binding affinity; FIG. 12C)
T1 construct: also called hROR1
T1 sequence (Q01973 30-406 limits assumed): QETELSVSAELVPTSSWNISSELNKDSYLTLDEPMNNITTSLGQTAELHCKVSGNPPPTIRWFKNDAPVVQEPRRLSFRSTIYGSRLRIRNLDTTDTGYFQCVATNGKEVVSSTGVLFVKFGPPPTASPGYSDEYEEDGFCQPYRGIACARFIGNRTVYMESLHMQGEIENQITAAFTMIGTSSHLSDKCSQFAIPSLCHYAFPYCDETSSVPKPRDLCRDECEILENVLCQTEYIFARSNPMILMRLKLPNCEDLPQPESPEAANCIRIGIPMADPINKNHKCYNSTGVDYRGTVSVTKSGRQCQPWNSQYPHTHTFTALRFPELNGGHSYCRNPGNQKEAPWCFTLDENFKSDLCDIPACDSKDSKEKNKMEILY

[2] = target: recombinant human ROR1 protein with the mouse amino acid residue at position 138 (human, UniProt Q01973 30-406, limits assumed); assay: immunoblot after non-denaturing PAGE (FIG. 10)
Sequence of recombinant human ROR1 protein with the mouse amino acid residue at position 138 (Q01973 30-406 E138K limits assumed): as the sequence (Q01973 30-406 limits assumed) above, with E109K counted along it
Source text: Constructs depicted in FIG. 6 were used to select high affinity recombinant antibodies. […] Human and chimeric ROR1-ex constructs were transfected into 293 cells. This allowed for production of recombinant human-mouse chimeric ROR1 proteins that could be size separated in a non-denaturing PAGE gel or SDS PAGE gel for immunoblot analysis with different anti-ROR1 mAb. […] The full human extracellular domain is provided on the far left lane of either gel (FIG. 11).

[3] = target: T1, human ROR1 protein (construct not …); assay: method not stated (FIG. 12)

Binder	Kd [1] [nM]	binding result [2]	fold higher binding affinity than D10 [3] [fold]
B1	0.8	no binding	50
B2	41	–	–
